Reference: patent US20110251266, “APTAMER FOR NGF AND USE THEREOF” (Shionogi & Co., Ltd., published 2011)

target: T1, beta-NGF (nerve growth factor) (Homo sapiens, UniProt P01138 P01138:122-241); assay: SPR; blocks NGF-TrkA and NGF-P75; settings: tags: R&D Systems; chain copies: 2
Protocol: As directed in BIAcore Company's protocol, Protein A (21181, PIERCE) was immobilized on a CM5 sensor chip. About 1100 RU of human Trk A-Fc fused with the Fc portion of IgG (175-TK, R&D systems) was immobilized thereon. As the analyte, a mixture of NGF (0.1 μM) and each aptamer (0.33 μM) was injected after being allowed to stand for 30 minutes. […] When NGF binds stronger to a receptor than an aptamer, the aptamer may be removed and NGF may bind to the receptor. […] Using the binding amount of NGF and NGF receptor without an aptamer as 100, the binding amount of NGF and NGF receptor added with an aptamer was determined as a correction value. Here, the binding amount is the RU value at the peak top of the sensorgram of BIAcore (RU value immediately after completion of NGF injection). […] A similar experiment was performed for another receptor P75 (p75-Fc; R&D systems).

T1 sequence (P01138 122-241, one chain of several): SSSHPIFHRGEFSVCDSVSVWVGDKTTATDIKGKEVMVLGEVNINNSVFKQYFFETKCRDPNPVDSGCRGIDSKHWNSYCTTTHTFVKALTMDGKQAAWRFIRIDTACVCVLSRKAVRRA

Binder	activity
SEQ85 aptamer (ssRNA, 2'-F all pyrimidines) RNA: GGGAGAACUUCGACCAGAAGCGGAAGCCUGCGUAACCGCAGGAUGAAAACAACCGUAUGUGCGCAUACAUGGAUCCUC	≥ 60 % inhibition
SEQ74 mosaic aptamer (mixed, purines ribo, pyrimidines (C,T) deoxy) DNA: GGGAGAGGCAAGAATAGGGCATAGTGTAGACCCCTCTCAAGATACCCCATGAATTGCCCCGTGAAGAGAAGAGACATTAGGA	≥ 60 % inhibition
SEQ64 aptamer (ssRNA, 2'-F all pyrimidines) RNA: GGGAGAACUUCGACCAGAAGUUUGAAAGAAACCCAAAACAUUAGCACACAUAUGUGCGCAUACAUGGAUCCUCA	≥ 60 % inhibition
SEQ40 aptamer (ssRNA, 2'-F all pyrimidines) RNA: GGGAGAACUUCGACCAGAAGUUUGAAAAAAACCCAGGAAAAUGGAAGACGUAUGUGCGCAUACAUGGAUCCUCA	≥ 60 % inhibition
SEQ42 aptamer (ssRNA, 2'-F all pyrimidines) RNA: GGGAGAACUUCGACCAGAAGUUUGAAAAAAACCCAAAAGAGCAGCAGAGAUAUGUGCGCAUACAUGGAUCCUCA	≥ 60 % inhibition
SEQ57 aptamer (ssRNA, 2'-F all pyrimidines) RNA: GGGAGAACUUCGACCAGAAGUUUGAAAAAAACCCAAACACCGAAGCACAAAUAUGUGCGCAUACAUGGAUCCUCA	≥ 60 % inhibition
SEQ76 aptamer (ssRNA, 2'-F all pyrimidines) RNA: GGGAGAACUUCGACCAGAAGGAUAAACGCAUGUAUUUGCAGUAUUAAAAAUGCCUUAUGUGCGCAUACAUGGAUCCUC	≥ 60 % inhibition
SEQ54 aptamer (ssRNA, 2'-F all pyrimidines) RNA: GGGAGAACUUCGACCAGAAGUCGAAAGUGAAAGAAACUCCAACGAAAGCAUAUGUGCGCAUACAUGGAUCCUCA	≥ 60 % inhibition
SEQ69 mosaic aptamer (mixed, purines ribo, pyrimidines (C,T) deoxy) DNA: GGGAGAGGCAAGAATAGGGCCCAGCTGAAAAAAACCTGGACGTACACCGTTCGCCGAGCGGGTGAAGAGAAGAGACATTAGGA	≥ 60 % inhibition
SEQ39 aptamer (ssRNA, 2'-F all pyrimidines) RNA: GGGAGAACUUCGACCAGAAGUGUGAAAAGAACCCAAAUAAAACAACAAUGUAUGUGCGCAUACAUGGAUCCUCA	≥ 60 % inhibition
SEQ58 aptamer (ssRNA, 2'-F all pyrimidines) RNA: GGGAGAACUUCGACCAGAAGUUUGAAAAGAACCCAAAUACAGAAUAAAUGUAUGUGCGCAUACAUGGAUCCUCA	≥ 60 % inhibition
SEQ77 aptamer (ssRNA, 2'-F all pyrimidines) RNA: GGGAGAACUUCGACCAGAAGUGAAAAAAUCUCCAGUUGCAAGACGAAACAAACCUUAUGUGCGCAUACAUGGAUCCUC	≥ 60 % inhibition
SEQ72 mosaic aptamer (mixed, purines ribo, pyrimidines (C,T) deoxy) DNA: GGGAGAGGCAAGAATAGGGCTGGATGGGCAGTAACCTGAAAAAAACCACCCACCTCTACCGTGAAGAGAAGAGACATTAGGA	≥ 60 % inhibition
SEQ49 aptamer (ssRNA, 2'-F all pyrimidines) RNA: GGGAGAACUUCGACCAGAAGUGAAAGAAACUCCCAAGACGGUAACGAAAGUAUGUGCGCAUACAUGGAUCCUCA	≥ 60 % inhibition
SEQ41 aptamer (ssRNA, 2'-F all pyrimidines) RNA: GGGAGAACUUCGACCAGAAGUUUGAAAGGAACCCAAAGCGAAACAAAACGUAUGUGCGCAUACAUGGAUCCUCA	≥ 60 % inhibition
SEQ37 aptamer (ssRNA, 2'-F all pyrimidines) RNA: GGGAGAACUUCGACCAGAAGUUUGAAAGAAACCCAAAGGUGAAACAACAAUAUGUGCGCAUACAUGGAUCCUCA	≥ 60 % inhibition
SEQ62 aptamer (ssRNA, 2'-F all pyrimidines) RNA: GGGAGAACUUCGACCAGAAGUUUGAAAGAAACCCAAAUUAAAGUGAACAGUAUGUGCGCAUACAUGGAUCCUCA	≥ 60 % inhibition

Binder	activity
SEQ82 aptamer (ssRNA, 2'-F all pyrimidines) RNA: GGGAGAACUUCGACCAGAAGAGGAUGCUUGUUUGGUUACAAGCUGAAAGAAACCUUAUGUGCGCAUACAUGGAUCCUC	≥ 60 % inhibition
SEQ52 aptamer (ssRNA, 2'-F all pyrimidines) RNA: GGGAGAACUUCGACCAGAAGUUUGAAAGAAACCCAAAUAUACAAAACACUAUGUGCGCAUACAUGGAUCCUCA	≥ 60 % inhibition
SEQ80 aptamer (ssRNA, 2'-F all pyrimidines) RNA: GGGAGAACUUCGACCAGAAGUGAAAACAACCUCCCAAUAAUGAUCACAGAAAUCCUAUGUGCGCAUACAUGGAUCCUC	≥ 60 % inhibition
SEQ70 mosaic aptamer (mixed, purines ribo, pyrimidines (C,T) deoxy) DNA: GGGAGAGGCAAGAATAGGGCTGGAAATAGAACCGCGCTGTCTTCATTAAGCCGCCCAACGGTGAAGAGAAGAGACATTAGGA	≥ 60 % inhibition
SEQ78 aptamer (ssRNA, 2'-F all pyrimidines) RNA: GGGAGAACUUCGACCAGAAGUGUGUAUUGUUCAGGGUGUGCCCAGCCUAUAACCAUAUGUGCGCAUACAUGGAUCCUC	≥ 60 % inhibition
SEQ73 mosaic aptamer (mixed, purines ribo, pyrimidines (C,T) deoxy) DNA: GGGAGAGGCAAGAATAGGGCACTTGAAAAAAACCCAAAGAAAGAATACTTACCCGGCGCGTGAAGAGAAGAGACATTAGGA	≥ 60 % inhibition
SEQ86 aptamer (ssRNA, 2'-F all pyrimidines) RNA: GGGAGAACUUCGACCAGAAGGAGUAGCCAGUGAACCUGGAAUAUGAAAAAAACCUUAUGUGCGCAUACAUGGAUCCUC	≥ 60 % inhibition
SEQ75 aptamer (ssRNA, 2'-F all pyrimidines) RNA: GGGAGAACUUCGACCAGAAGUGAAAGAAUCUCCAAAGACAAGAUAAAAACAACCGUAUGUGCGCAUACAUGGAUCCUC	≥ 60 % inhibition
SEQ38 aptamer (ssRNA, 2'-F all pyrimidines) RNA: GGGAGAACUUCGACCAGAAGAGAAUGAAACUCCACAAAGUACAUAAAACAUAUGUGCGCAUACAUGGAUCCUCA	≥ 60 % inhibition
SEQ71 mosaic aptamer (mixed, purines ribo, pyrimidines (C,T) deoxy) DNA: GGGAGAGGCAAGAATAGGGCACTTGAAAAAAACCCAAATTTACCGTCTTCAGCGTCGGGTGTGAAGAGAAGAGACATTAGGA	≥ 60 % inhibition
SEQ81 aptamer (ssRNA, 2'-F all pyrimidines) RNA: GGGAGAACUUCGACCAGAAGGAGAUGACUGUGUAACCACAGUAUGAAAUAAACUCUAUGUGCGCAUACAUGGAUCCUC	≥ 60 % inhibition
SEQ51 aptamer (ssRNA, 2'-F all pyrimidines) RNA: GGGAGAACUUCGACCAGAAGUUUGAAAGAAACCCAAAAAAACAACAUAUGAACUAUGUGCGCAUACAUGGAUCCUCA	≥ 60 % inhibition
SEQ67 aptamer (ssRNA, 2'-F all pyrimidines) RNA: GGGAGAACUUCGACCAGAAGUCGAUAACGAACAAAACUCCCAAAGGAAUAUAUGUGCGCAUACAUGGAUCCUCA	≥ 60 % inhibition
SEQ68 aptamer (ssRNA, 2'-F all pyrimidines) RNA: GGGAGAACUUCGACCAGAAGUCGAGAGCGAAAGAAACUCCCAAAACACAGUAUGUGCGCAUACAUGGAUCCUCA	≥ 60 % inhibition
SEQ79 aptamer (ssRNA, 2'-F all pyrimidines) RNA: GGGAGAACUUCGACCAGAAGGAUAGCCAUGUGGAGGUGAAGACUGAAAUAAACCAUAUGUGCGCAUACAUGGAUCCUC	≥ 60 % inhibition
SEQ83 aptamer (ssRNA, 2'-F all pyrimidines) RNA: GGGAGAACUUCGACCAGAAGUUGAAGCUUGAAAAAAACCCAGGAUUAAACAGACAGUAUGUGCGCAUACAUGGAUCCUC	≥ 60 % inhibition
GGGAAGCCUGUGGAGCUGCAGGAUGAAAAAAACCCAAA (ssRNA, 2'-F all pyrimidines) [SEQ35 aptamer]	≥ 60 % inhibition

target: T1, beta-NGF (nerve growth factor); assay: cell_activity; Neuroscreen-1 neurite outgrowth; settings: tags: R&D Systems human NGF; chain copies: 2
Protocol: The neurite outgrowth inhibitory activity of aptamer was evaluated by using Neuroscreen-1 cell, which is a subclone of PC-12 cells. 2500 Cells per well were cultured for one day in an RPMI-1640 medium containing 2.5% horse serum and 1.25% fetal bovine serum in a 96 well flat-bottom plate coated with collagen type IV. A mixed solution of NGF (final concentration 15 ng/ml or 1.1 nM) prereacted in a serum-free RPMI-1640 medium at room temperature or 37° C. for 30 min to 1 hr and an aptamer (final concentration 500-3 nM) was added. Two or three days later, the cytoplasm and nuclei were stained using Cellomics Neurite Outgrowth Kits (manufactured by Thermo Scientific), and neurite length per cell was measured by Cellomics ArrayScan VTI (manufactured by Thermo Scientific). With the neurite length per cell obtained by culturing the cell for 2 days with the addition of NGF alone as inhibitory activity 0%, and that of the cell obtained by NGF free culture as inhibitory activity 100%, the inhibitory activity of the aptamer was calculated from the neurite length per cell obtained by culturing with the addition of NGF and the aptamer in mixture. […] When the inhibitory activity was 0% or below, ‘0%’ is indicated. When it was not less than 100%, ‘100%’ is indicated. The 50% inhibitory concentration was determined from the concentrations at two, above and below points sandwiching the 50% inhibitory activity.

Binder	IC50
SEQ40 aptamer (ssRNA, 2'-F pyrimidines) RNA: GGGAGAACUUCGACCAGAAGUUUGAAAAAAACCCAGGAAAAUGGAAGACGUAUGUGCGCAUACAUGGAUCCUCA	2.4 nM
SEQ62 aptamer (ssRNA, 2'-F pyrimidines) RNA: GGGAGAACUUCGACCAGAAGUUUGAAAGAAACCCAAAUUAAAGUGAACAGUAUGUGCGCAUACAUGGAUCCUCA	2 nM
SEQ67 aptamer (ssRNA, 2'-F pyrimidines) RNA: GGGAGAACUUCGACCAGAAGUCGAUAACGAACAAAACUCCCAAAGGAAUAUAUGUGCGCAUACAUGGAUCCUCA	2.7 nM
